Measured values taken from patent US20230028110A1.
Blank lines part the entries; values can stand above or below the substance they belong to.

Assays:
[1] = target: Recombinant human FAPα (human) (UniProt Q12884); test: SPR (Reichert 4SPR), antibody on Protein A chip, antigen flown over
[2] = target: FAPα on FAPα+ fibroblasts (human) (UniProt Q12884); test: flow cytometry on BJ fibroblasts, anti-human Fc secondary antibody, % IgG bound cells
[3] = target: PD-1 on activated CD4 and CD8 T-cells; test: flow cytometry on anti-CD3/anti-CD28-activated CD4 T-cells, anti-human IgG secondary antibody, % cells bound IgG
[4] = target: PD-1 on activated CD4 and CD8 T-cells; test: flow cytometry on anti-CD3/anti-CD28-activated CD8 T-cells, anti-human IgG secondary antibody, % cells bound IgG
[5] = target: Recombinant human TIGIT (human) (UniProt Q495A1); test: SPR (Reichert 4SPR), antibody on Protein A chip, antigen flown over
[6] = target: TIGIT on Vδ1 γδ T-cells (human) (UniProt Q495A1); test: flow cytometry, anti-human IgG secondary antibody, Vδ1 γδ T-cells
[7] = target: TIGIT on activated CD8 T-cells (human) (UniProt Q495A1); test: flow cytometry, anti-human IgG secondary antibody, activated CD8 T-cells
[8] = target: Recombinant human OX40 (human) (UniProt P43489); test: SPR (Reichert 4SPR), antibody on Protein A chip, antigen flown over
[9] = target: OX40 on activated CD4 T-cells; test: flow cytometry on anti-CD3/anti-CD28-activated CD4 T-cells, anti-human IgG secondary antibody, % cells bound IgG
Chain of OX40 on activated CD4 T-cells (chain, as listed by the source limits assumed): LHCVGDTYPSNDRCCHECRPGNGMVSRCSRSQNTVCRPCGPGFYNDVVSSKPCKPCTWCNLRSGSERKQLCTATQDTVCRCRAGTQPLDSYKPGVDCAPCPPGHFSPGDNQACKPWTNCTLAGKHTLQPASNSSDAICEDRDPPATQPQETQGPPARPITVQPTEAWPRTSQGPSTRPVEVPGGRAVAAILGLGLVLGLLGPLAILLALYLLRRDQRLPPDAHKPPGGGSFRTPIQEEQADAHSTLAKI

Chain of PD-1 on activated CD4 and CD8 T-cells (chain, as listed by the source limits assumed): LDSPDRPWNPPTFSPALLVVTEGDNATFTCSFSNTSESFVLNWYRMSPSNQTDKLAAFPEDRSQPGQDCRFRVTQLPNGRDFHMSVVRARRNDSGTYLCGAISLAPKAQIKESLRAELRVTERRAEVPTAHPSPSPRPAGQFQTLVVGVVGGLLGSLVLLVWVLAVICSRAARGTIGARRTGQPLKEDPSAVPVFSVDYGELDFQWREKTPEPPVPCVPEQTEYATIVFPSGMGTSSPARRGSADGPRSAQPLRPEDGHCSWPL
Chain of Recombinant human TIGIT (human) (Q495A1 22-141 limits assumed): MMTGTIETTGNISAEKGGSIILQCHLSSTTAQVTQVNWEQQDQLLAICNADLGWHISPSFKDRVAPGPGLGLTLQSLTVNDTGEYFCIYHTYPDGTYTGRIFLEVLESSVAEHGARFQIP
Chain of TIGIT on activated CD8 T-cells (human) (Q495A1 22-244 limits assumed): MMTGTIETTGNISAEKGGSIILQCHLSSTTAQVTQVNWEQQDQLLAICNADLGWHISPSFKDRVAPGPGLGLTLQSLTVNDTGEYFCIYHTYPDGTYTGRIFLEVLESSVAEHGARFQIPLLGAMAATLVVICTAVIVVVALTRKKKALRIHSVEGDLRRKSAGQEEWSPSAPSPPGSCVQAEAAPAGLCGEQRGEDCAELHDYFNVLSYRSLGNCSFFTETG
Chain of TIGIT on Vδ1 γδ T-cells (human) (Q495A1 22-244, stated change not applied): as the sequence (Q495A1 22-244 limits assumed) above
Chain of Recombinant human OX40 (human) (P43489 29-216 limits assumed): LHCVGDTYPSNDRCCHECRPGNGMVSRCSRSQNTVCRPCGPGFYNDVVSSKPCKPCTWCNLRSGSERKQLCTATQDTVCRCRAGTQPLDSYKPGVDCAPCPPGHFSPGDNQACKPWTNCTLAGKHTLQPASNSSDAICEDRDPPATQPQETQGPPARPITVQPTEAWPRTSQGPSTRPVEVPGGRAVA

- Kd [1]: 3.9 nM
- EC50 (read off the curve) [2]: 0.08 nM
Substance: Anti-FAPα monoclonal antibody (based on sibrotuzumab)

- EC50 (read off the curve) [3]: 0.2 nM
- EC50 (read off the curve) [4]: 0.1 nM
Substance: Anti-PD-1 antibody (based on pembrolizumab)

- Kd [5]: 0.3 nM
- EC50 (read off the curve) [6]: 8 nM
- EC50 (read off the curve) [7]: 0.4 nM
Substance: Anti-TIGIT antibody (based on tiragolumab)

- Kd [8]: 0.82 nM
- EC50 (read off the curve) [9]: 0.1 nM
Substance: Anti-OX40 antibody (based on pogalizumab)
